Series [1] addresses T1, CIC-HMG/C1 fusion (UniProt Q96RK0-2 188-288+1401-1608, internal_change). The experiment in a line: EMSA. Background: In EMSA bound probe runs differently from free probe, usually more slowly.
Series [2] deals with T1, CIC-HMG/C1 fusion. The experiment in a line: ITC. For orientation: ITC needs no label: the signal is the heat of the interaction.
The target of series [3] is CIC-HMG (UniProt Q96RK0-2 188-288). The experiment in a line: ITC.

B1: DUSP6 site #5 (EMSA) (dsDNA)
DNA 1: GGCAGCTTCATTGAGAGAGA
DNA 2: TCTCTCTCAATGAAGCTGCC
As to B1, in series [1], the binding result is on record as “binds”.

B2: DUSP6 mutant site #4 (EMSA) (dsDNA)
DNA 1: TTGGATTTAGCTCACTGGGG
DNA 2: CCCCAGTGAGCTAAATCCAA
Regarding B2, the binding result in series [1] was “no binding”.

B3: DUSP6 site #6 (EMSA) (dsDNA)
DNA 1: GAGAGATTCATTGACACTAA
DNA 2: TTAGTGTCAATGAATCTCTC
On to B3, for which the binding result in series [1] is “binds”.

B4: DUSP6 site #5 (ITC) (dsDNA)
DNA 1: GGCAGCTTCATTGAGAGAGA
DNA 2: TCTCTCTCAATGAAGCTGCC
With B4, the binding result in series [2] is listed as “binds”.

B5: DUSP6 site #4 (ITC) (dsDNA)
DNA 1: TTGGATTTCATTCACTGGGG
DNA 2: CCCCAGTGAATGAAATCCAA
B5: the binding result in series [2] was “binds”; in series [3], “no binding”.

B6: DUSP6 site #6 (ITC) (dsDNA)
DNA 1: GAGAGATTCATTGACACTAA
DNA 2: TTAGTGTCAATGAATCTCTC
As to B6, in series [2], the binding result is reported as “binds”.

B7: DUSP6 site #4 (EMSA) (dsDNA)
DNA 1: TTGGATTTCATTCACTGGGG
DNA 2: CCCCAGTGAATGAAATCCAA
In the case of B7, the binding result in series [1] is on record as “binds”.

The record behind these values is PMC7578760.
